Reference: article PMC5432616, “Oligomeric State and Thermal Stability of Apo- and Holo- Human Ornithine δ-Aminotransferase” (The Protein Journal, 2017)

Tests used:
purified protein [1] = substrate: NCCC[C@H](N)C(=O)O; assay: purified protein; conditions: co-substrate α-KG, 60 nM enzyme, 50 mM Hepes, pH 8.0, 150 mM NaCl, 100 μM PLP, 25 °C
purified protein [2] = substrate: O=C(O)CCC(=O)C(=O)O; assay: purified protein; assay type: biochemical, Homo sapiens; conditions: co-substrate L-Orn, 60 nM enzyme, 50 mM Hepes, pH 8.0, 150 mM NaCl, 100 μM PLP, 25 °C

B1: hOAT (human ornithine δ-aminotransferase) (Homo sapiens; R217A) (protein)
chain: TSVATKKTVQGPPTSDDIFEREYKYGAHNYHPLPVALERGKGIYLWDVEGRKYFDFLSSYSAVNQGHCHPKIVNALKSQVDKLTLTSRAFYNNVLGEYEEYITKLFNYHKVLPMNTGVEAGETACKLARKWGYTVKGIQKYKAKIVFAAGNFWGRTLSAISSSTDPTSYDGFGPFMPGFDIIPYNDLPALEAALQDPNVAAFMVEPIQGEAGVVVPDPGYLMGVRELCTRHQVLFIADEIQTGLARTGRWLAVDYENVRPDIVLLGKALSGGLYPVSAVLCDDDIMLTIKPGEHGSTYGGNPLGCRVAIAALEVLEEENLAENADKLGIILRNELMKLPSDVVTAVRGKGLLNAIVIKETKDWDAWKVCLRLRDNGLLAKPTHGDIIRFAPPLVIKEDELRESIEIINKTILSF
notes: untagged, pET43a, E. coli BL21(DE3)pLysS; DEAE and Superdex 200; tetramer in equilibrium with dimer, dimer is the functional unit
B1 was tested. Which Km (purified protein [1]) did it give?
The Km was 5.1 ± 0.3 mM.

What about the kcat (purified protein [1]) of the same protein?
Its kcat is 38.4 ± 0.7 s⁻¹.

What about the Km (purified protein [2]) of the same protein?
The Km was 2.4 ± 0.1 mM.

What about the kcat (purified protein [2]) of the same protein?
The kcat was 38.1 ± 0.3 s⁻¹.
